# Reference: paper PMC3567102
# T1: wild-type Mtd (major tropism determinant), Mtd-GST fusion protein (Bordetella bronchiseptica bacteriophage), Q775D6
# T1 chain: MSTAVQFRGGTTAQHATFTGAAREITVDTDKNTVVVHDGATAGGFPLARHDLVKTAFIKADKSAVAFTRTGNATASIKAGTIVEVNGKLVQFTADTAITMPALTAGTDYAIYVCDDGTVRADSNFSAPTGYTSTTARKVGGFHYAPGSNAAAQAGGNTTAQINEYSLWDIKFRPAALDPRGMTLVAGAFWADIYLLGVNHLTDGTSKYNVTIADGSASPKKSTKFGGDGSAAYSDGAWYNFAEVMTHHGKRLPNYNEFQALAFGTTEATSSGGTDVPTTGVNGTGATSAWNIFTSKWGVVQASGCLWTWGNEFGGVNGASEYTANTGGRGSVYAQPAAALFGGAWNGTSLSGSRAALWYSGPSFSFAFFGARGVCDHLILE
# Biological target: T1, wild-type Mtd (major tropism …)
# Test: SEC; size exclusion chromatography of purified Mtd-GST fusion proteins after dialysis into PBS
# Conditions: remark: other sources report otherwise
binder,measurement,value
"wild-type Mtd (major tropism determinant), Mtd-GST fusion protein, Q775D6 1-381 (natural protein) MSTAVQFRGGTTAQHATFTGAAREITVDTDKNTVVVHDGATAGGFPLARHDLVKTAFIKADKSAVAFTRTGNATASIKAGTIVEVNGKLVQFTADTAITMPALTAGTDYAIYVCDDGTVRADSNFSAPTGYTSTTARKVGGFHYAPGSNAAAQAGGNTTAQINEYSLWDIKFRPAALDPRGMTLVAGAFWADIYLLGVNHLTDGTSKYNVTIADGSASPKKSTKFGGDGSAAYSDGAWYNFAEVMTHHGKRLPNYNEFQALAFGTTEATSSGGTDVPTTGVNGTGATSAWNIFTSKWGVVQASGCLWTWGNEFGGVNGASEYTANTGGRGSVYAQPAAALFGGAWNGTSLSGSRAALWYSGPSFSFAFFGARGVCDHLILE",stoichiometry N,6
